Measured values: US20260028400A1
Blank lines part the entries; values can stand above or below the binder they belong to.

What was measured:
[1] = target: human- or mouse-derived ROR1 antigen (Sino Biological); experiment: ELISA on coated ROR1 antigen (human or mouse not said), OD450
[2] = target: human- or mouse-derived ROR1 antigen (Sino Biological); experiment: ELISA on coated ROR1 antigen (Sino Biological), conjugate against parent antibody P015004
[3] = target: human- or mouse-derived ROR1 antigen (Sino Biological); experiment: ELISA on coated ROR1 antigen (Sino Biological), conjugate against parent antibody P015042
[4] = target: human- or mouse-derived ROR1 antigen (Sino Biological); experiment: ELISA on coated ROR1 antigen (Sino Biological), conjugate against parent antibody P015044

- EC50 (read off the curve) [1]: 2 nM
- Affinity compared to parent antibody (%) [3]: 99.3%
B4: P015042-vc-PAB-MMAE (antibody, IgG1, V domains shown)
VH: EVQLLESGGGLVQPGGSLRLSCAASGFTFSDYAMSWVRQAPGKGLEWVSVISSDGGSIYYADSVKGRFTISRDNSKNTLYLQMNSLRAEDTAVYYCAKDRSRDMEVDFDYWGQGTLVTVSS
VL: QSVLTQPPSASGTPGQRVTISCSGSSSNIGSNYVTWYQQLPGTAPKLLIYDSSQRPSGVPDRFSGSKSGTSASLAISGLRSEDEADYYCGTWDYSLSGYVFGGGTKLTVL
modifications: maleimidocaproyl-valine-citrulline-p-aminobenzyloxycarbonyl monomethyl auristatin E on cysteine sulfhydryls of reduced disulfides; positions not given; average 3.3 drugs per antibody

- EC50 (read off the curve) [1]: 0.8 nM
B5: P015044 (antibody, V domains shown)
VH: EVQLLESGGGLVQPGGSLRLSCAASGFTFSNYAMHWVRQAPGKGLEWVSIIYPDDDTRYNPSFRGRFTISRDNSKNTLYLQMNSLRAEDTAVYYCARDLLYAGDYWGQGTLVTVSS
VL: QSVLTQPPSASGTPGQRVTISCGGNNIESKAVHWYQQLPGTAPKLLIYANNKRPSGVPDRFSGSKSGTSASLAISGLRSEDEADYYCQSYDSNKVVFGGGTKLTVL

- Affinity compared to parent antibody (%) [4]: 82.7%
- EC50 (read off the curve) [1]: 2 nM
B6: P015044-vc-PAB-MMAE (antibody, IgG1, V domains shown)
VH: B5 VH
VL: B5 VL
modifications: maleimidocaproyl-valine-citrulline-p-aminobenzyloxycarbonyl monomethyl auristatin E on cysteine sulfhydryls of reduced disulfides; positions not given; average 3.0 drugs per antibody

The next lines start with the binder.

B1: P015004 (antibody, V domains shown)
VH: EVQLLESGGGLVQPGGSLRLSCAASGFTFSDYAMAWVRQAPGKGLEWVSIIYPGDSETIYSPSFEGRFTISRDNSKNTLYLQMNSLRAEDTAVYYCARDTYWEGYFDLWGQGTLVTVSS
VL: EIVLTQSPGTLSLSPGERATLSCRASQGISNYLAWYQQKPGQAPRLLIYDASNLESGIPDRFSGSGSGTDFTLTISRLEPEDFAVYYCQQYANLPYTFGQGTKVEIK
- EC50 (read off the curve) [1]: 0.8 nM

B2: P015004-vc-PAB-MMAE (antibody, IgG1, V domains shown)
VH: B1 VH
VL: B1 VL
modifications: maleimidocaproyl-valine-citrulline-p-aminobenzyloxycarbonyl monomethyl auristatin E on cysteine sulfhydryls of reduced disulfides; positions not given; average 3.0 drugs per antibody
- EC50 (read off the curve) [1]: 2 nM
- Affinity compared to parent antibody (%) [2]: 80.3%

B3: P015042 (antibody, V domains shown)
VH: B4 VH
VL: B4 VL
- EC50 (read off the curve) [1]: 0.5 nM
